Results published in paper PMC5148612, “Mechanism of cargo-directed Atg8 conjugation during selective autophagy” (eLife, 2016).
Numbering of substitutions follows the chain as printed. Numbers in names are those of the source.

T1: Atg12~Atg5 conjugate (S. cerevisiae, UniProt P38316 1-186; Q12380 1-294, conjugated to Atg5 (Atg12~Atg5 protein conjugate) | conjugated to Atg12)
T1 construct: Atg12, S. cerevisiae; Atg5, S. cerevisiae; the two chains are covalently joined; source: E. coli Rosetta pLysS, co-expression of 6xHis-Atg5, Atg12, Atg7 and Atg10, purified
T1 sequence (looked up) 1: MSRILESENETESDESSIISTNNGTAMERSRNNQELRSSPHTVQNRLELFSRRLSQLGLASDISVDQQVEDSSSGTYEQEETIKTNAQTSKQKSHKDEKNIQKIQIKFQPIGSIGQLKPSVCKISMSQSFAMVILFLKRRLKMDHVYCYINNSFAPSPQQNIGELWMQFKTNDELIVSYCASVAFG
T1 sequence (looked up) 2: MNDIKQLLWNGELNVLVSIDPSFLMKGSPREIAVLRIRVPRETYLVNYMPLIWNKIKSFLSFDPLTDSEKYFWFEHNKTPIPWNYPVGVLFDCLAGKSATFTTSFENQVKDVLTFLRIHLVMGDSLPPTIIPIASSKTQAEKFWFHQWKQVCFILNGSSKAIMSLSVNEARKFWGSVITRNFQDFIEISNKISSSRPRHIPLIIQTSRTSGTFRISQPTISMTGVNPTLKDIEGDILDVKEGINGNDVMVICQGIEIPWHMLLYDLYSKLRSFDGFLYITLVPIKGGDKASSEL

T2: Atg5 (S. cerevisiae, UniProt Q12380 1-294)
T2 construct: Atg5, S. cerevisiae; in the co-purification with Atg16 (1–46) the GST was still on the protein while it was held on glutathione beads; also called GST-Atg5; source: E. coli Rosetta pLysS, on glutathione beads, cleaved off with thrombin; not shown: GST, N-terminal, cleaved
T2 sequence (looked up): T1 sequence (looked up) 2

T3: Atg12~Atg5-Atg16 complex (S. cerevisiae, UniProt P38316 1-186; Q12380 1-294; Q03818 1-150, conjugated to Atg5 (Atg12~Atg5 protein conjugate) | conjugated to Atg12)
T3 construct: Atg12, S. cerevisiae; Atg5, S. cerevisiae; Atg16, S. cerevisiae; conjugate made by co-expression with Atg7 and Atg10 (SMC131); details in Romanov et al., 2012; also called E3-like complex; source: E. coli Rosetta pLysS; Atg12~Atg5 conjugate mixed 1:1 with purified Atg16, purified by size exclusion chromatography; not shown: GST, N-terminal, cleaved; copies: + +
T3 sequence (looked up) 1: T1 sequence (looked up) 1
T3 sequence (looked up) 2: T1 sequence (looked up) 2
T3 sequence (looked up) 3: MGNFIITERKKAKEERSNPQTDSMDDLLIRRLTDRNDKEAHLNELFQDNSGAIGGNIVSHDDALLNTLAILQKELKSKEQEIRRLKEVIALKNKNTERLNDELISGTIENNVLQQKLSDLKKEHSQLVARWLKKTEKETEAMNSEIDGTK

T4: GST-Atg19 (S. cerevisiae, UniProt P35193 1-415)
T4 construct: Atg19, S. cerevisiae cargo receptor; also called full length GST-Atg19; Atg19 full length; source: E. coli Rosetta pLysS, purified; not shown: GST, N-terminal, kept
T4 sequence (looked up): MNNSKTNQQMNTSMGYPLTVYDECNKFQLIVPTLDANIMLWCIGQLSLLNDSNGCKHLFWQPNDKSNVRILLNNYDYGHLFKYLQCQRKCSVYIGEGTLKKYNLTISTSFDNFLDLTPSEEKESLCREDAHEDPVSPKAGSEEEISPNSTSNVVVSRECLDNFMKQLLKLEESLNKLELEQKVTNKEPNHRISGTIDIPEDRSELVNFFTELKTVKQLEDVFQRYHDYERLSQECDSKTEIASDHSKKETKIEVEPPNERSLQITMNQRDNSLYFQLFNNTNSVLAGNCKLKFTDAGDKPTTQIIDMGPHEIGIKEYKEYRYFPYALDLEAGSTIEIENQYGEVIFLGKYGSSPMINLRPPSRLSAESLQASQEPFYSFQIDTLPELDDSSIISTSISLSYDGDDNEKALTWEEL

T5: Atg19 (S. cerevisiae, UniProt P35193 1-415)
T5 construct: Atg19, S. cerevisiae; printed without a tag; also called Atg19 wild type
T5 sequence (looked up): T4 sequence (looked up)

T6: Atg5-mCherry-Atg16 (1–46) complex (S. cerevisiae, UniProt Q12380 1-294; Q03818 1-46)
T6 construct: Atg5, S. cerevisiae; Atg16, S. cerevisiae, first 46 amino acids; a TEV site follows the His tag of Atg5; no cleavage is described; source: E. coli Rosetta pLysS, co-expressed, purified (Ni-NTA, Superdex 200); not shown: mCherry, C-terminal, kept
T6 sequence (looked up) 1: T1 sequence (looked up) 2
T6 sequence (looked up) 2: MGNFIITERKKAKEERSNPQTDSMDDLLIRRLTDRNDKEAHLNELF

T7: Atg5-Atg16 complex (S. cerevisiae, UniProt Q12380 1-294; Q03818 1-150)
T7 construct: Atg5, S. cerevisiae; Atg16, S. cerevisiae; source: E. coli Rosetta pLysS; Atg5 cleaved from GST mixed 1:1 with purified Atg16, purified by size exclusion chromatography; not shown: GST, N-terminal, cleaved
T7 sequence (looked up) 1: T1 sequence (looked up) 2
T7 sequence (looked up) 2: T3 sequence (looked up) 3

T8: GFP-Atg8∆R117 (S. cerevisiae, UniProt P38182 1-116)
T8 construct: Atg8, S. cerevisiae, without its last residue R117; also called meGFP-Atg8∆R117; 6xHis-meGFP-Atg8∆R117; source: E. coli Rosetta pLysS, purified; not shown: meGFP, N-terminal, kept
T8 sequence (looked up): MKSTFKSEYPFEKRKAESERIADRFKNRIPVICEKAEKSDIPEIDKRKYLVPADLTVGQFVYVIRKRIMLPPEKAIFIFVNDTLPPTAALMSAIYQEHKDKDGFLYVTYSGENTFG

B1: Atg16 (natural protein, S. cerevisiae, UniProt Q03818 1-150, looked up)
chain: T3 sequence (looked up) 3
notes: Atg16, S. cerevisiae; also called purified Atg16; GST-Atg16; source: E. coli Rosetta pLysS, purified
B2: Atg16-meGFP (natural protein, S. cerevisiae, UniProt Q03818 1-150, looked up)
chain: T3 sequence (looked up) 3
notes: Atg16, S. cerevisiae; source: E. coli Rosetta pLysS, purified; not shown: meGFP, C-terminal, kept
B3: GST-Atg34 (natural protein, S. cerevisiae, UniProt Q12292 1-412, looked up)
chain: MKIAVETTLFDFFVIDQFKKSTFSAPNTKVDTIKGCINKFIEQFNVYDEQHIFWQPPGKSNVRLLSNANDFGQLGNFLHKKIKCNIFIGEEALRKYDLNICGPYDKFVENSDPSVKKVVNRDDVMLSRKCLNIISEQLSILEKSISKAQNQVLQSSEVEGKKCIILPEDKPELIKFFSKFETSVQLQEVYEGYKVYEKLLQKFGGQKKRMESFLNENTPMSGAEAIKQINISEELKEKGERLTTPNDPLLHVEVSNEDNSLHFILYNKTNIIIPGNCTFEFSSQISEVFSIKMGPHEIGIKGQKELWFFPSLPTPLSNYTMKVVNQDGETILVGKCADSNEITLKSPLASFSTGSFQTGSFHTLQDPTNVFRADALSSPDESSIMSTPFLGETDEVYNSGSTLSRPFTWEEI
notes: Atg34, S. cerevisiae cargo receptor; also called α-mannosidase (Ams1) receptor; source: E. coli Rosetta pLysS, purified; not shown: GST, N-terminal, kept
B4: Atg5-Atg16 (1–46) (complex, S. cerevisiae)
chain 1: T1 sequence (looked up) 2
chain 2: T6 sequence (looked up) 2
notes: Atg5, S. cerevisiae; Atg16, S. cerevisiae, first 46 amino acids; the His tag of Atg5 is followed by a TEV site; also called Atg5 stabilized with the N-terminal helix of Atg16; Atg5-Atg16 (1–46) wild type; source: E. coli, co-expressed and purified in complex
B5: Atg5-Atg16 (1–46) for analytical size exclusion chromatography (complex, S. cerevisiae)
chain 1: T1 sequence (looked up) 2
chain 2: T6 sequence (looked up) 2
notes: Atg5, S. cerevisiae; Atg16, S. cerevisiae, first 46 amino acids; source: E. coli Rosetta pLySS, co-expressed, purified (glutathione beads, thrombin, Superdex 200); not shown: GST, N-terminal, cleaved
B6: Atg5(R208E)-Atg16 (1–46) (complex, S. cerevisiae)
chain 1: T1 sequence (looked up) 2 with R208E
chain 2: T6 sequence (looked up) 2
notes: Atg5, S. cerevisiae; Atg16, S. cerevisiae, first 46 amino acids; source: E. coli, co-expressed and purified in complex
B7: Atg5(K137E)-Atg16 (1–46) (complex, S. cerevisiae)
chain 1: T1 sequence (looked up) 2 with K137E
chain 2: T6 sequence (looked up) 2
notes: as for B6
B8: GST-Atg19(365–415) (domain or fragment, S. cerevisiae, UniProt P35193 365-415, looked up)
chain: SAESLQASQEPFYSFQIDTLPELDDSSIISTSISLSYDGDDNEKALTWEEL
notes: Atg19, S. cerevisiae, C-terminal domain; also called Atg19 C-terminal domain; Atg19 CTD (365-415); source: E. coli Rosetta pLysS, purified; not shown: GST, N-terminal, kept
B9: GST-Atg19(365–407) (domain or fragment, S. cerevisiae, UniProt P35193 365-407, looked up)
chain: SAESLQASQEPFYSFQIDTLPELDDSSIISTSISLSYDGDDNE
notes: Atg19, S. cerevisiae; also called Atg19 C-terminal domain with the canonical AIM motif deleted; source: E. coli Rosetta pLysS, purified; not shown: GST, N-terminal, kept

Assays:
Conditions in all cases: both partners purified
Atg12~Atg5 conjugate = target: T1, Atg12~Atg5 conjugate; experiment: SEC; separately purified proteins mixed in a molar ratio 1:1 for 30 min at 4°C or on ice; the resulting complex purified on Superdex S200 16/60
Atg5 = target: T2, Atg5; experiment: as above
Atg12~Atg5-Atg16 complex = target: T3, Atg12~Atg5-Atg16 complex; experiment: pull-down; GST-fused bait 5 µM and GST-free prey 5 µM with glutathione Sepharose 4B, 1 hr at 4°C; washed with 25 mM HEPES pH 7.5, 150 mM NaCl, 1 mM DTT and 0.1% TritonX100; Western blot (Figures 1A, 1C, 2A, 2C)
GST-Atg19 [1] = target: T4, GST-Atg19; experiment: as above
Atg19 = target: T5, Atg19; experiment: SEC; Atg19 and Atg5-Atg16 (1–46) premixed at 55 µM, concentrated to 580 µM, Superose 6 PC 3.2/30, 25 mM HEPES pH 7.5, 150 mM NaCl, 1 mM DTT; fractions on Coomassie gels
GST-Atg19 [2] = target: T4, GST-Atg19; experiment: pull-down; GST-fused bait 20 µM and GST-free prey 5 µM with glutathione Sepharose 4B, 1 hr at 4°C; washed with 25 mM HEPES pH 7.5, 150 mM NaCl, 1 mM DTT; anti-Atg5 Western blot (Figure 2E, Figure 3—figure supplement 1, Figure 4C)
[3] = target: T6, Atg5-mCherry-Atg16 (1–46) complex; experiment: microscopy-based protein-protein interaction assay on beads; glutathione beads coated with GST-fused proteins at 30 µM, Atg5-mCherry-Atg16 (1–46) 18 µM, equilibrium (Figure 3B, C)
Atg5-Atg16 (1–46) = target: B4; experiment: pull-down; GST-fused bait 20 µM and GST-free prey 5 µM with glutathione Sepharose 4B, 1 hr at 4°C; washed with 25 mM HEPES pH 7.5, 150 mM NaCl, 1 mM DTT; anti-Atg5 Western blot (Figure 2E, Figure 3—figure supplement 1, Figure 4C)
Atg5-Atg16 complex = target: T7, Atg5-Atg16 complex; experiment: as above
GFP-Atg8∆R117 = target: T8, GFP-Atg8∆R117; experiment: microscopy-based competition assay on beads; beads coated with GST-Atg19(365–415) at 30 µM, Atg5-mCherry-Atg16 (1–46) 18 µM; then GFP-Atg8∆R117 18 µM (1x), then Atg8 400 µM (22x); 25 mM HEPES pH 7.5, 150 mM NaCl, 1 mM DTT (Figure 3E, F)

Does B1 bind (Atg12~Atg5 conjugate)?
Result: binds

Does B1 bind (Atg5)?
Result: binds

Does B2 bind (Atg5)?
Result: binds

Does B3 bind (Atg12~Atg5-Atg16 complex)?
Result: binds

Does B4 bind (GST-Atg19 [1])?
Result: binds

Does B5 bind (Atg19)?
Result: binds

Does B6 bind (GST-Atg19 [2])?
Result: binds

Does B7 bind (GST-Atg19 [2])?
Result: binds

Does B8 bind [3]?
Result: binds

Does B8 bind (Atg5-Atg16 (1–46))?
Result: binds

Does B8 bind (Atg5-Atg16 complex)?
Result: binds

Does B8 bind (GFP-Atg8∆R117)?
Result: binds

Does B9 bind [3]?
Result: binds

Does B9 bind (Atg5-Atg16 (1–46))?
Result: binds
